This passage reports Km and kcat results from publication PMC3398583, “Functional Cloning and Expression of the Schizophyllum commune Glucuronoyl Esterase Gene and Characterization of the Recombinant Enzyme” (Biotechnology Research International, 2012).

Substrate in the data set: COC(=O)[C@H]1O[C@H](O[C@H]2[C@H](Oc3ccc([N+](=O)[O-])cc3)OC[C@@H](O)[C@@H]2O)[C@H](O)[C@@H](O)[C@@H]1OC
The data set can be described thus: purified protein. The class given is biochemical, Schizophyllum commune. Particulars: 50 mM Na phosphate, pH 6.0, 0.08-0.4 mM substrate, 0.157 μM enzyme.

B1: rScGE (recombinant Schizophyllum commune glucuronoyl esterase) (Schizophyllum commune H4-8) (protein)
chain: LSAALLAIAAFANVASAQDCDTPATVSGYSNSALPDPFTFNDGSPVTTAEDWECRRSQILALIQGYESGAAPPEPESVTGTASGNSLSVQVSYGGKSITFNNSITYPSGTAPAEGWPVIIAYEFPSLPIPSNVATLSFQNSAMGKQDSTSSRGQGLFYDLYGSSSNASAMTAWAWGVSRIIDAIESTPDAKLNPAAVGVTGCSRNGKGALMAGALEPRVALTLPQESGSGGDACWRLSRYEEQQGSQVQTATEIVGENCWFSAGFDQYVNNLDSLPYDHHLLAALVAPRGLISYANTDYVWLSGMSSFGCMTAAHAVYEALGVPENHGFEQVGGHSHCQWPSQLDGSLNAFINKFLLGQDVSTDYFESNNQFNGVTWSESQWINWETPTLN
notes: synthetic gene, all 393 residues except start Met (native signal peptide 1-19 in the construct); pGAPZalpha-A alpha-factor secretion, C-terminal myc and His tags; Pichia pastoris SMD1168; glycosylated, 53 kD (46 kD after N-glycosidase F)
As for B1, the Michaelis-Menten constant (Km) worked out at 250 µM and the kcat was determined as 9.27 s⁻¹.
